Results on 1 molecule are retold here after PMC5711526.

The data set deals with human alpha-thrombin (Homo sapiens, UniProt P00734;P00734 328-363;364-622). The experiment in a line: native ESI-MS.

With GGTTGGTGTGGTTGG (structured_DNA) [TBA (Bock thrombin binding aptamer, 15-mer)], the binding result is listed as “binds”.
